Consider 1 substance from article PMC5561266.

This test has as its target McpB ligand-binding domain (LBD) of Ralstonia pseudosolanacearum Ps29 (Ralstonia pseudosolanacearum Ps29). As to the kind of experiment: AUC.

By stoichiometry N is commonly meant the number of molecules, sites or subunits per partner or assembly. The substance “McpB ligand-binding domain (LBD) of Ralstonia pseudosolanacearum Ps29 (domain or fragment)” showed a stoichiometry N of 2.
